Measured values taken from the supplement of paper PMC11196671.
± gives the standard deviation of the averaged measurements.

What was measured:
[1] = BHET released, HPLC; higher = more BHET released; extreme values may be limits of the assay; conditions: 24 h
Procedure: (§1)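 Purified PET hydrolases, 2.5 ug enzyme on 3.5 mg amorphous PET film (aFilm) or crystalline PET powder (cryPow) in 0.5 mL of 50 mM buffer (NaCitrate pH 4.5/5.5, NaPhosphate 6.5/7.5, glycine 8.5/9.5) at 60 or 70 C with shaking for 24 h. Total aromatic product by UV-Vis (260/280 nm, blank-subtracted, normalised per mg enzyme) and individual TPA, MHET, BHET concentrations by UHPLC-DAD at 240 nm; duplicate reactions.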

[2] = MHET released, HPLC; higher = more MHET released; extreme values may be limits of the assay; conditions: 24 h
Procedure: as §1

[3] = PET hydrolysis product formed (TPA+MHET+BHET, UV-Vis) per mg enzyme (mmol/mg enzyme); higher = more PET depolymerisation activity; extreme values may be limits of the assay; conditions: 2 h
Procedure: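 Purified PET hydrolases (His-SUMO cleaved, E. coli C41(DE3) small-scale expression), 2.5 ug enzyme on 3.5 mg amorphous PET film (aFilm) or crystalline PET powder (cryPow) in 0.5 mL of 50 mM buffer (NaCitrate pH 4.5/5.5, NaPhosphate 6.5/7.5, glycine 8.5/9.5) at 60 or 70 C with shaking for 2 h. Soluble aromatic products (TPA+MHET+BHET) were quantified by UV-Vis at 260/280 nm, blank-subtracted against the no-enzyme control, and normalised per mg enzyme; duplicate reactions.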

[4] = as above; conditions: 24 h
Procedure: as §1

QTNPYARGPNPTAASLEASAGPFTVRSFTVARPVGYGAGTVYYPTNAGGTVGAIAIVPGYTATQSSINWWGPRLASHGFVVITIDTNSTLDKPESRSSQQMAALRQVASLNGTSSSPIYGKVDTARGGVMGWSMGGGGSLISAANNPSLKAAAVMAPWHSSTNFSSVTVPTLIFACENDRIAPVKEYALPIYDSMSLNAKQFLEICGGSHSCACSGNSNQALIGMKGVAWMKRFMDNDTRYSQFACENPNSTAVCDFRTANCS [HotPETase]
Conditions	BHET released, [1] [mM]	MHET released, [2] [mM]	PET hydrolysis product formed, [3]	PET hydrolysis product formed, [4]
PET substrate: aFilm, 60 °C, pH 4.5	0	0	0	0
PET substrate: aFilm, 60 °C, pH 5.5	0	0.282 ± 0.044	0	0.126 ± 0.01
PET substrate: aFilm, 60 °C, pH 6.5	0	0.534 ± 0.033	0.0257 ± 0.0015	0.172 ± 0.017
PET substrate: aFilm, 60 °C, pH 7.5	0.045 ± 0.032	3.07 ± 1	0.0712 ± 0.0097	1.02 ± 0.28
PET substrate: aFilm, 60 °C, pH 8.5	0	0.303 ± 0.0093	0.0455 ± 0.00046	0.116 ± 0.0013
PET substrate: aFilm, 60 °C, pH 9.5	0	1.8 ± 0.49	0.0961 ± 0.036	0.744 ± 0.13
PET substrate: aFilm, 70 °C, pH 4.5	0	0	0	0
PET substrate: aFilm, 70 °C, pH 5.5	0	0	0	0
PET substrate: aFilm, 70 °C, pH 6.5	0	0.0858 ± 0.078	0.00383 ± 0.0054	0.0334 ± 0.033
PET substrate: aFilm, 70 °C, pH 7.5	0	0.198 ± 0.22	0.0174 ± 0.0077	0.0761 ± 0.082
PET substrate: aFilm, 70 °C, pH 8.5	0	0.121 ± 0.0029	0.0193 ± 0.0094	0.049 ± 0.0026
PET substrate: aFilm, 70 °C, pH 9.5	0	0.077 ± 0.074	0.092 ± 0.024	0.175 ± 0.067
PET substrate: cryPow, 60 °C, pH 4.5	0	0	0.00338 ± 0.0048	0
PET substrate: cryPow, 60 °C, pH 5.5	0.0125 ± 0.0033	0.43 ± 0.018	0.0775 ± 0.018	0.118 ± 0.008
PET substrate: cryPow, 60 °C, pH 6.5	0.00555 ± 0.0078	0.527 ± 0.066	0.106 ± 0.032	0.14 ± 0.0042
PET substrate: cryPow, 60 °C, pH 7.5	0	0.655 ± 0.037	0.131 ± 0.033	0.195 ± 0.031
PET substrate: cryPow, 60 °C, pH 8.5	0	0.319 ± 0.024	0.0736 ± 0.0045	0.104 ± 0.008
PET substrate: cryPow, 60 °C, pH 9.5	0	0.174 ± 0.029	0.0954 ± 0.0097	0.151 ± 0.0065
PET substrate: cryPow, 70 °C, pH 4.5	0	0	0	0
PET substrate: cryPow, 70 °C, pH 5.5	0	0.163 ± 0.018	0.05472 ± 0.00018	0.0481 ± 0.003
PET substrate: cryPow, 70 °C, pH 6.5	0.00798 ± 0.003	0.386 ± 0.032	0.0748 ± 0.0042	0.103 ± 0.0067
PET substrate: cryPow, 70 °C, pH 7.5	0	0.249 ± 0.057	0.109 ± 0.0081	0.094 ± 0.019
PET substrate: cryPow, 70 °C, pH 8.5	0	0.268 ± 0.017	0.0678 ± 0.0019	0.0775 ± 0.0022
PET substrate: cryPow, 70 °C, pH 9.5	0	0.0221 ± 0.0057	0.0796 ± 0.014	0.0809 ± 0.015

QTNPYARGPDPTAASLEASAGPFTVRSFTVSRPSGYGAGTVYYPTNAGGTVGAIAIVPGYTARQSSIKWWGPRLASHGFVVITIDTNSTLDQPESRSSQQMAALEQVASLNGTSSSPIYGKVDTARMGVMGWSMGGGGSLISACNNPSLKAAVVQAPWHSSTNFSCVTVPTLIFACENDSIAPVNSSALPIYDSMSENAKQFLEICGGSHSCANTGNSDQALIGKKGVAWMKRFMDNDTRYSTFACENPNSTRVCDFRTANCS [Z1-PETase]
Conditions	BHET released, [1] [mM]	MHET released, [2] [mM]	PET hydrolysis product formed, [3]	PET hydrolysis product formed, [4]
PET substrate: aFilm, 60 °C, pH 4.5	0	0	0	0
PET substrate: aFilm, 60 °C, pH 5.5	0	0	0	0.00483 ± 0.0068
PET substrate: aFilm, 60 °C, pH 6.5	0	0.321 ± 0.11	0	0.113 ± 0.03
PET substrate: aFilm, 60 °C, pH 7.5	0	1.88 ± 0.9	0.032 ± 0.00089	0.617 ± 0.27
PET substrate: aFilm, 60 °C, pH 8.5	0	0.249 ± 0.026	0.03625 ± 0.00018	0.103 ± 0.0058
PET substrate: aFilm, 60 °C, pH 9.5	0	1.03 ± 0.33	0.0733 ± 0.012	0.517 ± 0.092
PET substrate: aFilm, 70 °C, pH 4.5	0	0	0	0
PET substrate: aFilm, 70 °C, pH 5.5	0	0	0	0
PET substrate: aFilm, 70 °C, pH 6.5	0	0	0	0
PET substrate: aFilm, 70 °C, pH 7.5	0	0.0119 ± 0.017	0	0.00464 ± 0.0066
PET substrate: aFilm, 70 °C, pH 8.5	0	0.00565 ± 0.008	0	0
PET substrate: aFilm, 70 °C, pH 9.5	0	0	0.00338 ± 0.0048	0.00672 ± 0.0095
PET substrate: cryPow, 60 °C, pH 4.5	0	0	0	0
PET substrate: cryPow, 60 °C, pH 5.5	0	0.053 ± 0.043	0	0.0183 ± 0.014
PET substrate: cryPow, 60 °C, pH 6.5	0.00328 ± 0.0046	0.476 ± 0.032	0.0995 ± 0.044	0.126 ± 0.0032
PET substrate: cryPow, 60 °C, pH 7.5	0	0.522 ± 0.033	0.135 ± 0.068	0.152 ± 0.0075
PET substrate: cryPow, 60 °C, pH 8.5	0	0.343 ± 0.099	0.102 ± 0.0012	0.117 ± 0.022
PET substrate: cryPow, 60 °C, pH 9.5	0	0.071 ± 0.022	0.13 ± 0.015	0.134 ± 0.0067
PET substrate: cryPow, 70 °C, pH 4.5	0	0	0	0
PET substrate: cryPow, 70 °C, pH 5.5	0	0	0	0
PET substrate: cryPow, 70 °C, pH 6.5	0	0.125 ± 0.011	0.0288 ± 0.0056	0.0331 ± 0.0023
PET substrate: cryPow, 70 °C, pH 7.5	0	0.181 ± 0.033	0.0688 ± 0.0027	0.0691 ± 0.012
PET substrate: cryPow, 70 °C, pH 8.5	0	0.123 ± 0.0094	0.0583 ± 0.0029	0.0403
PET substrate: cryPow, 70 °C, pH 9.5	0	0.0142 ± 0.0083	0.0657 ± 0.0079	0.0592 ± 0.022
